Where a chain is given by its changes, count along the chain named. Names may count otherwise.
B1: human RIPK1 RHIM-harboring domain (residues 496-583), wild type (domain or fragment, UniProt Q13546 496-583, looked up)
chain: HMPSLHNIPVPETNYLGNTPTMPFSSLPPTDESIKYTIYNSTGIQIGAYNYMEIGGTSSSLLDSTNTNFKEEPAAKYQAIFDNTTSLT
B2: human RIPK1 RHIM-harboring domain (residues 496-583), N545D variant (domain or fragment, UniProt Q13546 496-583, looked up)
chain: B1 chain with N50D

Tests used:
[1] = target: the molecule itself; assay: thioflavin T fluorescence
[2] = target: the molecule itself; assay: solution NMR, decay of monomer signals over time

Protein | binding result [1] | binding result [2]
B1 | binds | 
B2 |  | binds
